Reference: patent publication US20090220470A1

Experiments:
[1] = target: K63 tetra-ubiquitin (Boston Biochem) (UniProt P0CG48); test: SPR (BiaCore 3000), dissociation phase fitted with a double exponential, second (slow) phase
[2] = target: K48 tetra-ubiquitin (Boston Biochem) (UniProt P0CG48); test: as above
[3] = target: K63 tetra-ubiquitin (Boston Biochem) (UniProt P0CG48); test: ratio of the literature Kd of the single UBA (Raasi et al.) to the SPR Kd of the TUBE
[4] = target: K48 tetra-ubiquitin (Boston Biochem) (UniProt P0CG48); test: as above
[5] = target: K63 tetra-ubiquitin (Boston Biochem) (UniProt P0CG48); test: SPR (BiaCore 3000), dissociation phase fitted with a double exponential, first (rapid) phase
[6] = target: K48 tetra-ubiquitin (Boston Biochem) (UniProt P0CG48); test: as above
[7] = target: Mono-ubiquitin (Sigma Aldrich) (UniProt P0CG48); test: SPR (Biacore), GST fusion captured on anti-GST antibody chip (150-220 RU), mono-ubiquitin injected in a 2-fold dilution series, steady-state fit
[8] = target: Mono-ubiquitin (Sigma Aldrich) (UniProt P0CG48); test: SPR (BiaCore 3000), captured via GST on anti-GST chip, mono-ubiquitin injected, steady state
[9] = target: poly-ubiquitylated proteins (of cell lysates); test: cell-based or functional assay
[10] = target: K63 tetra-ubiquitin (Boston Biochem) (UniProt P0CG48); test: SPR (BiaCore 3000), GST-TUBE captured on anti-GST chip at low density, tetra-ubiquitin injected, steady-state fit
[11] = target: K48 tetra-ubiquitin (Boston Biochem) (UniProt P0CG48); test: as above
[12] = target: K63 tetra-ubiquitin (Boston Biochem) (UniProt P0CG48); test: SPR (BiaCore 3000), dissociation followed over two hours (data not shown)
[13] = target: K48 tetra-ubiquitin (Boston Biochem) (UniProt P0CG48); test: as above
[14] = target: Mono-ubiquitin (Sigma Aldrich) (UniProt P0CG48); test: SPR (BIACORE 3000), GST-p62 UBA polypeptide captured on anti-GST antibody chip, ubiquitin injected
[15] = target: Mono-ubiquitin (Sigma Aldrich) (UniProt P0CG48); test: SPR (BIACORE 3000), GST-p62 UBA polypeptide captured on anti-GST chip, ubiquitin injected

hHR23A TUBE (TUBE comprising 4 hHR23a UBA-1 domains, GST fusion with His6 and SV5 tags) (designed binder), sequence (chain, part): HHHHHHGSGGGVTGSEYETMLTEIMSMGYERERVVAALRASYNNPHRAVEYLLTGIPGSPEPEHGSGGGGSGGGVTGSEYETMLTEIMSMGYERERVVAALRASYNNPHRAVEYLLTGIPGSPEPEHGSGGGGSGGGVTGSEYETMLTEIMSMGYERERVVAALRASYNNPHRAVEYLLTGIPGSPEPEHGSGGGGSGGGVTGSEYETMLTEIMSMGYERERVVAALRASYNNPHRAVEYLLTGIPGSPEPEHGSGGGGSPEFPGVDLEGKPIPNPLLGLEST
Ubiquilin1 TUBE (TUBE comprising 4 ubiquilin-1 UBA domains, GST fusion with His6 and SV5 tags) (designed binder), sequence (chain, part): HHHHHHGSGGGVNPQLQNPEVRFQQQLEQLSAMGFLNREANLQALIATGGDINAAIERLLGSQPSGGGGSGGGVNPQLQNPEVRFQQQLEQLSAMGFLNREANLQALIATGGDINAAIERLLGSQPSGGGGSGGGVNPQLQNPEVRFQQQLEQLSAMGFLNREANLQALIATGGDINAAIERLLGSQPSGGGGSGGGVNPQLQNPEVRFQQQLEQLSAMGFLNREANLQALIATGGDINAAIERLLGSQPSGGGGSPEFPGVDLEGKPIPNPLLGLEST

koff [1] [s⁻¹] | koff [2] [s⁻¹] | Kd(UBA)/Kd(TUBE) [3] [fold] | Kd(UBA)/Kd(TUBE) [4] [fold] | koff [5] [s⁻¹] | t1/2 (first dissociation phase) [5] [s] | koff [6] [s⁻¹] | t1/2 (first dissociation phase) [6] [s] | Kd [7] [nM] | binding stoichiometry (molar ratio ubiquitin:TUBE) (ubiquitin per TUBE) [8] | lowest TUBE concentration at which protection from de-ubiquitylation was detectable [9] [µM] | Kd [10] [nM] | Kd [11] [nM] | half-life [12] [h] | half-life [13] [h] | N (stoichiometry of Ubiquitin-UBA interaction) [14] | fold more binding (against one UBA copy) [15] [fold] | Substance
0.0004 | 0.0004 | 833 | 84 | 0.03 | 25 | 0.03 | 25 | 30200 | 4 | 0.17 | 0.6 | 14.3 | > 5 | > 5 |  |  | Ubiquilin1 TUBE (TUBE comprising 4 ubiquilin-1 UBA domains, GST fusion with His6 and SV5 tags) (designed binder)
0.0004 | 0.0004 | 943 | 663 | 0.03 | 25 | 0.03 | 25 | 65800 | 4 | 0.17 | 4.88 | 9.35 | > 5 | > 5 |  |  | hHR23A TUBE (TUBE comprising 4 hHR23a UBA-1 domains, GST fusion with His6 and SV5 tags) (designed binder)
 |  |  |  |  |  |  |  |  |  |  |  |  |  |  | 5.8 | 6 | p62×4 (four domains of the p62-UBA fused to GST; TUBE comprising 4 p62 UBA domains) (designed binder)
